Results: patent US20160130347A1 (Hoffmann-La Roche, published 2016)

Experiments:
[1] = biological target: human MCSP on tumor cells (human, UniProt Q6UVK1 30-2322); experiment: cell-based or functional assay
human CD3 on T cells = human CD3 on T cells (human, UniProt P07766 23-126); experiment: cell-based or functional assay
Sequence of human CD3 on T cells (P07766 23-126 limits assumed): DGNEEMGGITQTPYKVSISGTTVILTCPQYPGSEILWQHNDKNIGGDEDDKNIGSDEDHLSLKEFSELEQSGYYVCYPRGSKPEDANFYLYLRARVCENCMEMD

Sequence of human MCSP on tumor cells (Q6UVK1 30-2322): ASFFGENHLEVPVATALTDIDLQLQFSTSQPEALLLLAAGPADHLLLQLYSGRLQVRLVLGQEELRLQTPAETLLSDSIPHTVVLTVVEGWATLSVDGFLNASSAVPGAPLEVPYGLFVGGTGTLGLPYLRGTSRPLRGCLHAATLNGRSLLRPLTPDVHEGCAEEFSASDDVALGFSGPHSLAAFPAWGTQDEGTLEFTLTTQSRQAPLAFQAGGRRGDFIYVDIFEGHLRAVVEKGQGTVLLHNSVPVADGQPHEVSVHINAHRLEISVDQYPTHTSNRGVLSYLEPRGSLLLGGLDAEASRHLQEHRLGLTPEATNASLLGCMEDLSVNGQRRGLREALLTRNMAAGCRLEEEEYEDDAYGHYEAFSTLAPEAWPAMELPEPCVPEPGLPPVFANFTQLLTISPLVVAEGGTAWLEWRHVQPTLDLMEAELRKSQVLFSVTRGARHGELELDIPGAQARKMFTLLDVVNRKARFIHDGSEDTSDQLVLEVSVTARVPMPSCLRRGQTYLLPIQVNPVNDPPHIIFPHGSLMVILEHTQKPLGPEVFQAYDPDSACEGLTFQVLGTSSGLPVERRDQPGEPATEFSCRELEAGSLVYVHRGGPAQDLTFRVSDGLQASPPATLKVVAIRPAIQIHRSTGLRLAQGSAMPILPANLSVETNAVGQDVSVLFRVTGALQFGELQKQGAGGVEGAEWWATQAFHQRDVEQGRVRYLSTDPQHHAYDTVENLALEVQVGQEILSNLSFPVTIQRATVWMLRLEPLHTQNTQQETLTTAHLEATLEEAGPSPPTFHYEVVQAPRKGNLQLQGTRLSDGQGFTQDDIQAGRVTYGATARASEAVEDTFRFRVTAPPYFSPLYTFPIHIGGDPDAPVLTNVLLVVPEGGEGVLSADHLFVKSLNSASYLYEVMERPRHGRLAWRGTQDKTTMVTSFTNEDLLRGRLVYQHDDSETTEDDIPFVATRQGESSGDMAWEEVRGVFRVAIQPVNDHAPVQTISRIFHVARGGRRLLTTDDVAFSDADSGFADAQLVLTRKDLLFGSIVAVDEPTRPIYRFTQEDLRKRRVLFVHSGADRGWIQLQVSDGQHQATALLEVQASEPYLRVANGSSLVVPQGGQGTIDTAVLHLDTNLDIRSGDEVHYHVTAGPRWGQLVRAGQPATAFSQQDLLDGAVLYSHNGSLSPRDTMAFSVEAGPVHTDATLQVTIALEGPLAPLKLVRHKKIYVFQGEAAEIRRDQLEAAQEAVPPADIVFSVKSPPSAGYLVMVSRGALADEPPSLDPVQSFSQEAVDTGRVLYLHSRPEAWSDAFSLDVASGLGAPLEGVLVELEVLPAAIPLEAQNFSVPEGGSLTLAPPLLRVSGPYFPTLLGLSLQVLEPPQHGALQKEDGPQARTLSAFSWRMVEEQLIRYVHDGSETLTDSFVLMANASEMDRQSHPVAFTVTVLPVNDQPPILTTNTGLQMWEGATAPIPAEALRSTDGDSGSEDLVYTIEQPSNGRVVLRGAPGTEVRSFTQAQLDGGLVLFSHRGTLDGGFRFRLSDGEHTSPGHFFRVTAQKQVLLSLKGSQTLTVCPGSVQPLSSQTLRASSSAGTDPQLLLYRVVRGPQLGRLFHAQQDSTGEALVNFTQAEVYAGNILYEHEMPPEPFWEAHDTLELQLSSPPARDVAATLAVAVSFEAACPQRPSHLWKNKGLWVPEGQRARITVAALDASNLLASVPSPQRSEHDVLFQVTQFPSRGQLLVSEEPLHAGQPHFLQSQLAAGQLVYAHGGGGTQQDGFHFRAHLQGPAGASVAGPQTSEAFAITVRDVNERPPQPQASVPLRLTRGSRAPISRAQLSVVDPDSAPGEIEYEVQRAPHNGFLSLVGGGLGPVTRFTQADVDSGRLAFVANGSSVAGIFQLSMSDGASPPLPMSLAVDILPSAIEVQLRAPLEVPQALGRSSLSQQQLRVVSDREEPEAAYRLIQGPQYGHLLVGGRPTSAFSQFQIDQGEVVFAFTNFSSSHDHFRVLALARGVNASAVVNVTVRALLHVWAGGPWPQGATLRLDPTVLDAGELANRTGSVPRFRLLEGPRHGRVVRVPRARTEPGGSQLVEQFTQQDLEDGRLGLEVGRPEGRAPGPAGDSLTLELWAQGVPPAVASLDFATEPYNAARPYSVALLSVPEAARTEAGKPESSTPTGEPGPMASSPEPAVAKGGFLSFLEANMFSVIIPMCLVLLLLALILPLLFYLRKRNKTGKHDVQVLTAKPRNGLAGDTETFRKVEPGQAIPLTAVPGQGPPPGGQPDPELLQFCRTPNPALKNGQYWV

B1: (scFv)2 (antiMCSP/anti huCD3e) (bispecific antibody)
scFv: DIVLTQSPSSLSASLGDRVTISCSASQGIRNYLNWYQQRPDGTVKLLIYYTSSLHSGVPSRFSGSGSGTDYSLTISNLEPEDIATYYCQQYSKLPWTFGGGTKLEIKGGGGSGGGGSGGGGSEVQLQESGPGLVKPSQSLSLTCSVTGYSITSGYYWNWIRQFPGNKLEWMGYITYDGSNNYNPSLKNRISITRDTSKNQFFLKLNSVTTEDTATYYCADFDYWGQGTTLTVSSGGGGSEVQLVESGGGLVQPGGSLRLSCAASGYSFTGYTMNWVRQAPGKGLEWVALINPYKGVSTYNQKFKDRFTISVDKSKNTAYLQMNSLRAEDTAVYYCARSGYYGDSDWYFDVWGQGTLVTVSSVEGGSGGSGGSGGSGGVDDIQMTQSPSSLSASVGDRVTITCRASQDIRNYLNWYQQKPGKAPKLLIYYTSRLESGVPSRFSGSGSGTDYTLTISSLQPEDFATYYCQQGNTLPWTFGQGTKVEIKHHHHHH
In the case of B1, the “EC50 of killing (LDH release) of MV-3 cells, human PBMCs, E:T 10:1, ~24 h” value [1] is reported as 0.0571 nM and the “EC50 of killing (LDH release) of MV-3 cells, human PBMCs, E:T 10:1, ~24 h” value (human CD3 on T cells) is reported as 0.0571 nM.
